Reference: publication PMC2267068, “Comparative Analysis of Metal Binding Characteristics of Copper Chaperone Proteins, Atx1 and ATOX1” (Bioinorganic Chemistry and Applications, 2004)
Changes are numbered by the printed parent chain. Names and notes keep the numbering of the source. Values joined by “and” are separate entries in the source; they are usually repeats but may differ in a detail not shown here. Identical values can stand only once.

Experiments:
[1] = target: T1, ATOX1 (human copper chaperone), wild type (human), O00244; experiment: cross-linking; DMS (spacer arm 11 A), Cd(II) + DTT; products on SDS-PAGE; settings: remark: other sources report otherwise
T1 chain: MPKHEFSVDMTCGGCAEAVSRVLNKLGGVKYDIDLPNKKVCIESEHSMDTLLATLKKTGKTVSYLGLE

[2] = target: T1, ATOX1 (human copper chaperone), wild …; experiment: SEC; Bio-Gel P-10 column (1.5 x 60 cm), 20 mM MES pH 6.0; reduced apoprotein (+DTT 3:1); 0.3, 0.5 and 0.3 mM ATOX1, C41S-ATOX1 and Atx1; size against myoglobin (18 kDa) and cytochrome C (12.5 kDa); settings: remark: other sources report otherwise
[3] = target: T1, ATOX1 (human copper chaperone), wild …; experiment: cross-linking; EGS (spacer arm 16.1 A), Cd(II) + DTT; products on SDS-PAGE; settings: remark: other sources report otherwise
[4] = target: T1, ATOX1 (human copper chaperone), wild …; experiment: cross-linking; metal complexes + DTT (which metals not told), DMS or EGS; faint higher bands on SDS-PAGE; settings: remark: other sources report otherwise
[5] = target: T1, ATOX1 (human copper chaperone), wild …; experiment: cross-linking; Hg(II) + DTT; DMS or EGS for ATOX1, EGS for Atx1; products on SDS-PAGE; settings: remark: other sources report otherwise
[6] = target: T1, ATOX1 (human copper chaperone), wild …; experiment: SEC; Bio-Gel P-10 column (1.5 x 60 cm), 20 mM MES pH 6.0; Cd(II) complex (metal 1:1, DTT 3:1); 0.3, 0.5 and 0.3 mM ATOX1, C41S-ATOX1 and Atx1; size against myoglobin (18 kDa) and cytochrome C (12.5 kDa); settings: remark: other sources report otherwise
[7] = target: the molecule itself; experiment: SEC; Bio-Gel P-10 column (1.5 x 60 cm), 20 mM MES pH 6.0; reduced apoprotein (+DTT 3:1); 0.3, 0.5 and 0.3 mM ATOX1, C41S-ATOX1 and Atx1; size against myoglobin (18 kDa) and cytochrome C (12.5 kDa)
[8] = target: T2, Atx1 (yeast copper chaperone) (yeast (Saccharomyces cerevisiae)), P38636; experiment: as above; settings: remark: other sources report otherwise
T2 chain: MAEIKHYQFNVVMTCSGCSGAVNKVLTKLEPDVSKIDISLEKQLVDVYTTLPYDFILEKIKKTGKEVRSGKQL

[9] = target: T2, Atx1 (yeast copper chaperone) (yeast …); experiment: cross-linking; EGS (spacer arm 16.1 A), Cd(II) + DTT; products on SDS-PAGE; settings: remark: other sources report otherwise
[10] = target: T2, Atx1 (yeast copper chaperone) (yeast …); experiment: cross-linking; Hg(II) + DTT; DMS or EGS for ATOX1, EGS for Atx1; products on SDS-PAGE; settings: remark: other sources report otherwise
[11] = target: T2, Atx1 (yeast copper chaperone) (yeast …); experiment: SEC; Bio-Gel P-10 column (1.5 x 60 cm), 20 mM MES pH 6.0; Cd(II) complex (metal 1:1, DTT 3:1); 0.3, 0.5 and 0.3 mM ATOX1, C41S-ATOX1 and Atx1; size against myoglobin (18 kDa) and cytochrome C (12.5 kDa); settings: remark: other sources report otherwise

B1: ATOX1 (human copper chaperone), wild type, O00244 1-68 (natural protein)
chain: T1 chain
Binder B1 has a stoichiometry N [1] of 2, a stoichiometry N [2] of 2 and a stoichiometry N [3] of 2. The stoichiometry N [4] was 3 and 4, the stoichiometry N [5] was 2 and the stoichiometry N [6] was 2.

B2: C41S-ATOX1 (natural protein, human, UniProt O00244 1-68, looked up)
chain: T1 chain with C41S
notes: ATOX1 (HAH1), human copper chaperone, with the non-conserved Cys 41 mutated to Ser; Made on the ATOX1 construct in pGEX-6P-2 to imitate Atx1, which lacks this Cys; also called C41S-ATOXI; source: E. coli BL21 (DE3), GST fusion from pGEX-6P-2, purified, GST removed with PreScission protease; not shown: GST, N-terminal, cleaved
B2 was tested, and the “stoichiometry N” value [7] was 2.

B3: Atx1 (yeast copper chaperone), P38636 1-73 (natural protein)
chain: T2 chain
For B3, the stoichiometry N [8] was 2, the stoichiometry N [9] was 2 and the stoichiometry N [10] was 2. For the same binder, the stoichiometry N [11] was 2.
